Reference: the supplement of paper PMC7125110
± gives the standard error. For some of these results: Variants at the floor of the assay were thinned out.

B1: glmS ribozyme (parent)
chain: AUAAAAGCGCCAGAACUACAGAAAUGUAGUUGACGAGGAGGAGGUUUAUCGAAUUUUCGGCGGAUGCCUCCAAA

Tests used:
Conditions in all cases: with glucosamine-6-phosphate
glucosamine-6-phosphate [1] = variants of: B1; assay: kcat; higher = faster cleavage; RNA array
Procedure, shortened: (§1)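 Barcoded ribozyme variants were transcribed in situ on sequenced MiSeq chips by E. coli RNA polymerase. At 37 °C, a hybridised Cy3 probe tracked them while glucosamine-6-phosphate (40 μM to 10 mM) in HEPES/KCl/Mg(OAc)2 buffer flowed in and tiles were imaged over ~14 h. Per-tile medians of signals normalised to baseline and to non-cleaving reference variants were fit to one- or two-exponential decays, giving kobs. kcat and KM came from weighted Michaelis–Menten fits across concentrations.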

glucosamine-6-phosphate [2] = variants of: B1; assay: KM; higher = weaker cofactor use; RNA array
Procedure, shortened: as §1

glucosamine-6-phosphate [3] = variants of: B1; assay: self-cleavage kobs at 40 uM GlcN6P; higher = faster cleavage; RNA array
Procedure, shortened: as §1

glucosamine-6-phosphate [4] = variants of: B1; assay: self-cleavage kobs at 160 uM GlcN6P; higher = faster cleavage; RNA array
Procedure, shortened: as §1

glucosamine-6-phosphate [5] = variants of: B1; assay: self-cleavage kobs at 640 uM GlcN6P; higher = faster cleavage; RNA array
Procedure, shortened: as §1

glucosamine-6-phosphate [6] = variants of: B1; assay: self-cleavage kobs at 2500 uM GlcN6P; higher = faster cleavage; RNA array
Procedure, shortened: as §1

glucosamine-6-phosphate [7] = variants of: B1; assay: self-cleavage kobs at 10000 uM GlcN6P; higher = faster cleavage; RNA array
Procedure, shortened: as §1

Variant	kcat (glucosamine-6-phosphate [1]) [s⁻¹]	KM (glucosamine-6-phosphate [2]) [µM]	self-cleavage kobs at 40 uM GlcN6P (glucosamine-6-phosphate [3]) [s⁻¹]	self-cleavage kobs at 160 uM GlcN6P (glucosamine-6-phosphate [4]) [s⁻¹]	self-cleavage kobs at 640 uM GlcN6P (glucosamine-6-phosphate [5]) [s⁻¹]	self-cleavage kobs at 2500 uM GlcN6P (glucosamine-6-phosphate [6]) [s⁻¹]	self-cleavage kobs at 10000 uM GlcN6P (glucosamine-6-phosphate [7]) [s⁻¹]
A15G U55G	0.0139 ± 0.0046	683 ± 310	0.000914 ± 0.00013	0.00183 ± 0.00047	0.00997 ± 0.0026	0.0187 ± 0.0059	0.0118 ± 0.0027
A15G U30C	0.0225 ± 0.0031	871 ± 170	0.00107 ± 0.00018	0.00315 ± 0.00047	0.0102 ± 0.0015	0.0197 ± 0.005	0.0186 ± 0.0045
A15G U30A	0.018 ± 0.005	923 ± 360	0.000649 ± 0.00011	0.00255 ± 0.00036	0.00983 ± 0.0012	0.0165 ± 0.0028	0.0115 ± 0.003
A14U G43A	4.42e-05 ± 1.9e-05	–	–	–	–	–	–
A14U U49G	0.000127 ± 2.5e-06	3130 ± 200	–	–	2.09e-05 ± 1e-05	5.86e-05 ± 2.3e-05	9.65e-05 ± 9.5e-06
A15C G66U	0.000265 ± 3.3e-05	3080 ± 740	–	–	4.02e-05 ± 7.2e-06	0.000134 ± 1.5e-05	0.000194 ± 2.2e-05
A15G G37A	0.00317 ± 0.0014	–	8.19e-05 ± 9.7e-06	0.000154 ± 2.7e-05	0.000515 ± 7.3e-05	0.00123 ± 0.00023	0.00292 ± 0.00037
A15U U54C	0.00568 ± 0.0015	1560 ± 660	0.000186 ± 2.3e-05	0.000292 ± 0.0001	0.00189 ± 0.0003	0.00297 ± 0.00042	0.00553 ± 0.00066
A15U U54G	0.00446 ± 0.00053	1730 ± 330	8.2e-05 ± 2.2e-05	0.000411 ± 6.8e-05	0.00189 ± 0.00075	0.00279 ± 0.00048	0.00368 ± 0.0005
A15G A53U	0.0369 ± 0.0054	2500 ± 470	0.000575 ± 0.00011	0.0027 ± 0.00073	0.00647 ± 0.002	0.0176 ± 0.0065	0.0306 ± 0.0073
A15U G40U	0.000328 ± 7.5e-05	–	–	2.65e-05 ± 1.3e-05	0.000117 ± 2.2e-05	0.000447 ± 6.9e-05	0.000273 ± 2.8e-05
C16A A48C	< 1e-05	–	< 1e-05	–	–	–	–
A15C G32A	0.00227 ± 0.0006	3610 ± 1400	4.19e-05 ± 1.9e-05	9.83e-05 ± 3.7e-05	0.000293 ± 6.8e-05	0.0012 ± 0.00025	0.00157 ± 0.00034
A15C C70A C71A	3.7e-05 ± 3.6e-06	98.6 ± 41	–	–	–	–	–
A15C U45C A53G U69C	0.000427 ± 8e-05	3740 ± 1200	< 1e-05	–	5.45e-05 ± 2e-05	0.000198 ± 4.6e-05	0.000288 ± 8.5e-05
A15C G29A	0.0015 ± 0.00014	6270 ± 870	–	–	0.000137 ± 2.3e-05	0.000429 ± 9.7e-05	0.000924 ± 0.00012
A15C G29C	0.00165 ± 0.00021	2620 ± 510	3.67e-05 ± 1e-05	8.7e-05 ± 1.5e-05	0.000333 ± 4.2e-05	0.000772 ± 9.9e-05	0.00135 ± 0.00018
A15G A36G	1.79e-05 ± 1.6e-07	8450 ± 150	–	–	–	–	–
A15G G51A	< 1e-05	–	–	< 1e-05	< 1e-05	–	–
C16A G40U	9.3e-05 ± 2.3e-05	–	–	–	4.49e-05 ± 1.2e-05	0.000122 ± 1.6e-05	7.36e-05 ± 1.2e-05
A15G U54G	0.0486 ± 0.02	2200 ± 1000	0.000945 ± 8.8e-05	0.00385 ± 0.00091	0.00802 ± 0.0015	0.0243 ± 0.0097	0.0509 ± 0.011
A14U U31G A64G	0.00476 ± 0.0018	–	6.69e-05 ± 1.5e-05	–	0.000996 ± 0.00037	0.00162 ± 0.00048	0.00468 ± 0.0012
C16A U31G C70U	0.00025 ± 1.3e-05	351 ± 54	–	7.99e-05 ± 2.2e-05	0.000157 ± 3e-05	0.000242 ± 6.1e-05	0.000235 ± 4.9e-05
A15C A53U	0.00401 ± 0.00066	1690 ± 400	9.37e-05 ± 1.2e-05	0.000395 ± 9e-05	0.00119 ± 0.00025	0.00184 ± 0.00036	0.00391 ± 0.00049
A15G U57G	9.24e-05 ± 1.1e-05	2500 ± 1200	–	–	–	5.11e-05 ± 2.2e-05	7.35e-05 ± 1.2e-05
A15G U57C	0.000143 ± 1.4e-05	2200 ± 520	–	–	2.79e-05 ± 9.6e-06	8.09e-05 ± 1.2e-05	0.000113 ± 1.7e-05
A15C C16U A53G U55A C68G	3.32e-05 ± 6.7e-06	–	–	3.89e-05 ± 1.8e-05	–	3.96e-05 ± 1.4e-05	–
A15G C61G	< 1e-05	–	< 1e-05	< 1e-05	< 1e-05	< 1e-05	–
A15G U65A	0.00646 ± 0.0018	3290 ± 1300	9.64e-05 ± 1.3e-05	0.000343 ± 0.00011	0.000867 ± 0.00018	0.00193 ± 0.00048	0.00545 ± 0.00064
